Data on eleven molecules can be found in publication PMC10743139, “Discovery and Engineering of a Novel Bacterial L-Aspartate α-Decarboxylase for Efficient Bioconversion” (Foods, 2023).

Data set [1] relates to N[C@@H](CC(=O)O)C(=O)O. Briefly: HPLC of beta-alanine, Michaelis-Menten fit. As to conditions: sodium L-aspartate 1-100 mM, pH 7.0, 37 °C, 5 min. In kind it is biochemical, Corynebacterium jeikeium. An excerpt:
HPLC of beta-alanine, Michaelis-Menten fit on CjADC (CorJei), L-aspartate α-decarboxylase from Corynebacterium jeikeium

Substrate in data set [2]: N[C@@H](CC(=O)O)C(=O)O
In words: purified protein. The note with it: sodium L-aspartate 1-100 mM, pH 7.0, 37 °C, 5 min.

Take “CjADC (CorJei), L-aspartate α-decarboxylase from Corynebacterium jeikeium (Corynebacterium jeikeium K411; C26V/I88M)”: the Km (usually the substrate concentration at which the rate is half of its maximum) in data set [1] turned out to be 3.6 ± 0.2 mM.

As to “CjADC (CorJei), L-aspartate α-decarboxylase from Corynebacterium jeikeium (Corynebacterium jeikeium K411; C26V/I88M/R3K/Y90F)”, in data set [1], the Km is 2.2 ± 0.5 mM; the kcat (commonly the maximal rate divided by the concentration of active sites) was found to be 209.2 ± 0.8 s⁻¹; the kcat/Km (as a rule, the second-order rate constant that governs catalysis at low substrate concentration) was 95100 ± 1600 M⁻¹ s⁻¹.

Turning to “CjADC (CorJei), L-aspartate α-decarboxylase from Corynebacterium jeikeium (Corynebacterium jeikeium K411; C26V/I88M/Y90F)”, in data set [1], the Michaelis-Menten constant (Km) came out at 2.6 ± 0.6 mM, the kcat was 171.5 ± 0.8 s⁻¹ and the catalytic efficiency (kcat/Km) was determined as 61200 ± 1300 M⁻¹ s⁻¹.

“CjADC (CorJei), L-aspartate α-decarboxylase from Corynebacterium jeikeium (Corynebacterium jeikeium K411; C26V/Y90F)”: in data set [1], the Km is listed as 4.1 ± 0.3 mM.

Turning to “CjADC (CorJei), L-aspartate α-decarboxylase from Corynebacterium jeikeium (Corynebacterium jeikeium K411; I88L/Y90F)”, in data set [1], the Km was found to be 3.9 ± 0.1 mM, the kcat stood at 88.6 ± 2.8 s⁻¹ and the kcat/Km is 22700 ± 500 M⁻¹ s⁻¹.

Take “CjADC (CorJei), L-aspartate α-decarboxylase from Corynebacterium jeikeium (Corynebacterium jeikeium K411; I88M/Y90F)”: in data set [1], the Km is reported as 3.2 ± 0.4 mM.

B1: LisMon, ADC from Listeria Monocytogenes (Listeria monocytogenes EGD-e) (protein)
chain 1: MFRTMMNGKIHRATVTEANLNYVG
chain 2: SITIDSAILEAVDMLPNEKVQIVNNNNGARIETYIIPGEPGSGVICLNGAAARHVQVGDVVIIMSYGMFTDEEAKTHEPKIVVLDEKNHIEMILPEEKAHTTL
As for B1, in data set [2], the Km is listed as 6.0 ± 0.2 mM.

B2: BacThe, ADC from Bacteroides thetaiotaomicron (Bacteroides thetaiotaomicron VPI-5482) (protein)
chain 1: MMIEVLKSKIHCARVTEANLNYMG
chain 2: SITIDEDLLDAANMIPGEKVYIADNNNGERFETYIIKGERGSGKICLNGAAARKVQPDDIVIIMSYALMDFEEAKSFKPTVIFPDPATNSVVK
Take B2: in data set [2], the Michaelis-Menten constant (Km) came out at 8.9 ± 0.4 mM.

B3: BsADC (BacSub), ADC from B. subtilis (Bacillus subtilis subsp. subtilis str. 168) (protein)
chain 1: MYRTMMSGKLHRATVTEANLNYVG
chain 2: SITIDEDLIDAVGMLPNEKVQIVNNNNGARLETYIIPGKRGSGVICLNGAAARLVQEGDKVIIISYKMMSDQEAASHEPKVAVLNDQNKIEQMLGNEPARTIL
For the molecule B3, the Michaelis-Menten constant (Km) in data set [2] is reported as 4.2 ± 0.3 mM.

B4: CjADC (CorJei), L-aspartate α-decarboxylase from Corynebacterium jeikeium (Corynebacterium jeikeium K411) (protein)
chain 1: MLRTMLKSKIHRATVTQADLHYVG
chain 2: SCTIDADLMEAADILEGEQIDIVDIDNGNRLTTYAITGDRGTGVIGINGAAARLISPGDLVIIIGYAQYSEEDLKNYASRVVFVDGNNKQVELGGDPAQVPDGSGLKNPRHPEA
Regarding B4, the Michaelis-Menten constant (Km) in data set [2] amounted to 3.6 ± 0.2 mM.

B5: CorGlu, ADC from Corynebacterium glutamicum (Corynebacterium glutamicum ATCC 13032) (protein)
chain 1: MLRTILGSKIHRATVTQADLDYVG
chain 2: SVTIDADLVHAAGLIEGEKVAIVDITNGARLETYVIVGDAGTGNICINGAAAHLINPGDLVIIMSYLQATDAEAKAYEPKIVHVDADNRIVALGNDLAEALPGSGLLTSRSI
With B5, in data set [2], the Michaelis constant (Km) stood at 4.5 ± 0.1 mM.
